The source of these data is article PMC314469, “Protein Interaction Networks by Proteome Peptide Scanning” (PLoS Biology, 2004).

First the molecules themselves.
T1: Rvs167 SH3 (RV167_YEAST), P39743
T1 chain: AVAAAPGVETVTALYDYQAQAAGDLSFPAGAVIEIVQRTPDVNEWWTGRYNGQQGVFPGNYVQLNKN

T2: Boi1 SH3 (BOI1_YEAST), P38041
T2 chain: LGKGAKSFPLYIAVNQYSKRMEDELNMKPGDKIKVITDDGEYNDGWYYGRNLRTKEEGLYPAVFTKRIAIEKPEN

T3: Myo5 SH3 (MYO5_YEAST), Q04439
T3 chain: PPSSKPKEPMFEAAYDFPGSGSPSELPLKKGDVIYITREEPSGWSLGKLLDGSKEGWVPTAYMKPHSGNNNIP

T4: Boi2 SH3 (BOI2_YEAST), P39969
T4 chain: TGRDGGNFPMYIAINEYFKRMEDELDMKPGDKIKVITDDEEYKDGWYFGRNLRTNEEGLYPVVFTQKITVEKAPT

T5: Yfr024 SH3 (LSB3_YEAST), P43603
T5 chain: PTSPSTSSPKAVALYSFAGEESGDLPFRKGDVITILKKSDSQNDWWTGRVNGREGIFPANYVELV

T6: Yhr016c SH3 (YSC84_YEAST), P32793
T6 chain: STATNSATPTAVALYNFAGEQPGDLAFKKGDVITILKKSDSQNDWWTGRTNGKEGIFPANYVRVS

Chain of Sho1 SH3 (SHO1_YEAST), P40073 (P40073 295-366): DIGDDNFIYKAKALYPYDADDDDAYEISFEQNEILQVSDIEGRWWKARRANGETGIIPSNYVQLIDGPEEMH

One assay has as its target T1, Rvs167 SH3 (RV167_YEAST), P39743. Briefly: SPOT array.
As to LAAHKTKPSIPPKK [YPR171W 350-363], the normalised SPOT signal, Boehringer light units (BLU); mean over the file's lines of this peptide worked out at 16.5.
As to LASDKGLPMIPAFV [YCL040W 56-69], the normalised SPOT signal, Boehringer light units (BLU); mean over the file's lines of this peptide was 51.5.
For the molecule LAGIRLVPVLPILL [YLR235C 75-88], the normalised SPOT signal, Boehringer light units (BLU); mean over the file's lines of this peptide was 12800.
On the same count and under the same terms, to KYSFKLVPPQPGSK [YBL085W 849-862] belongs 40.4; to KYIIKTEPESPEED [YLR133W 510-523], 34; to KVSSKYDPDNPNKD [YBR235W 48-61], 95.8.
Still for that read-out and setting: to KVNFRRIPTGPDSP [YIL131C 136-149] belongs 160; to KVQIKKVPTDPSSS [YBR136W 25-38], 44.5.
The same measure, in the same setting: to LDKGKHVPSKPVSN [YKL054C 145-158] belongs 60.9.
The molecule LAYERPLPDLPSTI [YKR027W 747-760] returned a normalised SPOT signal, Boehringer light units (BLU); mean over the file's lines of this peptide of 3530.
On to LAPKREAPKPPANT [YJL095W 802-815], for which the normalised SPOT signal, Boehringer light units (BLU); mean over the file's lines of this peptide was found to be 69.8.

A further assay addresses T2, Boi1 SH3 (BOI1_YEAST), P38041. Briefly: SPOT array.
LAAHKTKPSIPPKK [YPR171W 350-363] showed a normalised SPOT signal, Boehringer light units (BLU); mean over the file's lines of this peptide of 477.
On to LASDKGLPMIPAFV [YCL040W 56-69], for which the normalised SPOT signal, Boehringer light units (BLU); mean over the file's lines of this peptide was 94.4.
On to LAGIRLVPVLPILL [YLR235C 75-88], for which the normalised SPOT signal, Boehringer light units (BLU); mean over the file's lines of this peptide worked out at 63.1.
With KYSFKLVPPQPGSK [YBL085W 849-862], the normalised SPOT signal, Boehringer light units (BLU); mean over the file's lines of this peptide is 198.
The same measure, in the same setting: to KYIIKTEPESPEED [YLR133W 510-523] belongs 100; to KVSSKYDPDNPNKD [YBR235W 48-61], 127.
The molecule KVNFRRIPTGPDSP [YIL131C 136-149] had a normalised SPOT signal, Boehringer light units (BLU); mean over the file's lines of this peptide of 1120.
The same measure, in the same setting: to KVQIKKVPTDPSSS [YBR136W 25-38] belongs 1460.
The same measure, in the same setting: to LDKGKHVPSKPVSN [YKL054C 145-158] belongs 364.
Same read-out and setting: to LAYERPLPDLPSTI [YKR027W 747-760] belongs 41.8.
LAPKREAPKPPANT [YJL095W 802-815]: the normalised SPOT signal, Boehringer light units (BLU); mean over the file's lines of this peptide is 179.

A further assay has as its target T3, Myo5 SH3 (MYO5_YEAST), Q04439. Briefly: SPOT array.
Molecule LAAHKTKPSIPPKK [YPR171W 350-363] showed a normalised SPOT signal, Boehringer light units (BLU); mean over the file's lines of this peptide of 249.
Same read-out and setting: the result for LASDKGLPMIPAFV [YCL040W 56-69] reads 79.9.
Still for that read-out and setting: to LAGIRLVPVLPILL [YLR235C 75-88] belongs 152; to KYSFKLVPPQPGSK [YBL085W 849-862], 219.
On the same count and under the same terms, to KYIIKTEPESPEED [YLR133W 510-523] belongs 246.
Take KVSSKYDPDNPNKD [YBR235W 48-61]: the normalised SPOT signal, Boehringer light units (BLU); mean over the file's lines of this peptide came out at 434.
As for KVNFRRIPTGPDSP [YIL131C 136-149], the normalised SPOT signal, Boehringer light units (BLU); mean over the file's lines of this peptide was determined as 503.
Turning to KVQIKKVPTDPSSS [YBR136W 25-38], the normalised SPOT signal, Boehringer light units (BLU); mean over the file's lines of this peptide was found to be 191.
Same read-out and setting: to LDKGKHVPSKPVSN [YKL054C 145-158] belongs 201.
Still for that read-out and setting: the result for LAYERPLPDLPSTI [YKR027W 747-760] reads 132; that for LAPKREAPKPPANT [YJL095W 802-815], 116000.

Another assay has as its target T4, Boi2 SH3 (BOI2_YEAST), P39969. Briefly: SPOT array.
The molecule LAAHKTKPSIPPKK [YPR171W 350-363] came in with a normalised SPOT signal, Boehringer light units (BLU); mean over the file's lines of this peptide of 18.8.
The same measure, in the same setting: to LASDKGLPMIPAFV [YCL040W 56-69] belongs 134; to LAGIRLVPVLPILL [YLR235C 75-88], 22.4; to KYSFKLVPPQPGSK [YBL085W 849-862], 20.
Same read-out and setting: the result for KYIIKTEPESPEED [YLR133W 510-523] reads 39.6; that for KVSSKYDPDNPNKD [YBR235W 48-61], 23.8; that for KVNFRRIPTGPDSP [YIL131C 136-149], 24.3.
Regarding KVQIKKVPTDPSSS [YBR136W 25-38], the normalised SPOT signal, Boehringer light units (BLU); mean over the file's lines of this peptide was found to be 64.7.
LDKGKHVPSKPVSN [YKL054C 145-158] returned a normalised SPOT signal, Boehringer light units (BLU); mean over the file's lines of this peptide of 12.7.
LAYERPLPDLPSTI [YKR027W 747-760] had a normalised SPOT signal, Boehringer light units (BLU); mean over the file's lines of this peptide of 14.3.
On the same count and under the same terms, the result for LAPKREAPKPPANT [YJL095W 802-815] reads 28.5.

The next assay has as its target Sho1 SH3 (SHO1_YEAST), P40073. Nature of the assay: SPOT array.
Regarding LAAHKTKPSIPPKK [YPR171W 350-363], the normalised SPOT signal, Boehringer light units (BLU); mean over the file's lines of this peptide turned out to be 76.5.
LASDKGLPMIPAFV [YCL040W 56-69]: the normalised SPOT signal, Boehringer light units (BLU); mean over the file's lines of this peptide stood at 15200.
The same measure, in the same setting: to LAGIRLVPVLPILL [YLR235C 75-88] belongs 22.2; to KYSFKLVPPQPGSK [YBL085W 849-862], 70.4; to KYIIKTEPESPEED [YLR133W 510-523], 55.5.
On to KVSSKYDPDNPNKD [YBR235W 48-61], for which the normalised SPOT signal, Boehringer light units (BLU); mean over the file's lines of this peptide stood at 31.3.
As for KVNFRRIPTGPDSP [YIL131C 136-149], the normalised SPOT signal, Boehringer light units (BLU); mean over the file's lines of this peptide is 119.
As to KVQIKKVPTDPSSS [YBR136W 25-38], the normalised SPOT signal, Boehringer light units (BLU); mean over the file's lines of this peptide was determined as 28.2.
As for LDKGKHVPSKPVSN [YKL054C 145-158], the normalised SPOT signal, Boehringer light units (BLU); mean over the file's lines of this peptide was 76.4.
The same measure, in the same setting: to LAYERPLPDLPSTI [YKR027W 747-760] belongs 64100; to LAPKREAPKPPANT [YJL095W 802-815], 71.2.

The target of a further assay is T5, Yfr024 SH3 (LSB3_YEAST), P43603. Briefly: SPOT array.
The molecule LAAHKTKPSIPPKK [YPR171W 350-363] had a normalised SPOT signal, Boehringer light units (BLU); mean over the file's lines of this peptide of 1730.
In turn, LASDKGLPMIPAFV [YCL040W 56-69] showed a normalised SPOT signal, Boehringer light units (BLU); mean over the file's lines of this peptide of 48.3.
On the same count and under the same terms, the result for LAGIRLVPVLPILL [YLR235C 75-88] reads 2480.
Same read-out and setting: to KYSFKLVPPQPGSK [YBL085W 849-862] belongs 104.
Molecule KYIIKTEPESPEED [YLR133W 510-523] yielded a normalised SPOT signal, Boehringer light units (BLU); mean over the file's lines of this peptide of 6.9.
The same measure, in the same setting: the result for KVSSKYDPDNPNKD [YBR235W 48-61] reads 44.7.
Same read-out and setting: the result for KVNFRRIPTGPDSP [YIL131C 136-149] reads 234; that for KVQIKKVPTDPSSS [YBR136W 25-38], 9.9.
LDKGKHVPSKPVSN [YKL054C 145-158] displayed a normalised SPOT signal, Boehringer light units (BLU); mean over the file's lines of this peptide of 18.1.
LAYERPLPDLPSTI [YKR027W 747-760] came in with a normalised SPOT signal, Boehringer light units (BLU); mean over the file's lines of this peptide of 4460.
The same measure, in the same setting: the result for LAPKREAPKPPANT [YJL095W 802-815] reads 47.5.

For another assay, the target named is T6, Yhr016c SH3 (YSC84_YEAST), P32793. Briefly: SPOT array.
LAAHKTKPSIPPKK [YPR171W 350-363] had a normalised SPOT signal, Boehringer light units (BLU); mean over the file's lines of this peptide of 36.
On the same count and under the same terms, to LASDKGLPMIPAFV [YCL040W 56-69] belongs 62.8.
Regarding LAGIRLVPVLPILL [YLR235C 75-88], the normalised SPOT signal, Boehringer light units (BLU); mean over the file's lines of this peptide was 493.
Same read-out and setting: to KYSFKLVPPQPGSK [YBL085W 849-862] belongs 29.7; to KYIIKTEPESPEED [YLR133W 510-523], 34.1.
On the same count and under the same terms, to KVSSKYDPDNPNKD [YBR235W 48-61] belongs 32.1; to KVNFRRIPTGPDSP [YIL131C 136-149], 44.4; to KVQIKKVPTDPSSS [YBR136W 25-38], 13.5.
On the same count and under the same terms, to LDKGKHVPSKPVSN [YKL054C 145-158] belongs 4.8.
Take LAYERPLPDLPSTI [YKR027W 747-760]: the normalised SPOT signal, Boehringer light units (BLU); mean over the file's lines of this peptide came out at 8470.
LAPKREAPKPPANT [YJL095W 802-815] registered a normalised SPOT signal, Boehringer light units (BLU); mean over the file's lines of this peptide of 29.7.
